# Assay results published in patent publication US20220169732A1 (BIOND BIOLOGICS, published 2022).
# Where no end group is shown, it is not given here.
# T1: Biotin conjugated L145K CD28 stalk region dimeric peptide (human, C-terminal biotin; dimer through Cysteine 141)
# T1 peptide: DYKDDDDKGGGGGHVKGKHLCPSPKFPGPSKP
# T2: BSA conjugated CD28 stalk region dimeric peptide (human, also: dimer through the cysteine, BSA conjugated via C-terminal Lys by hydrazide chemistry)
# T2 construct: Peptide used for immunization and, BSA conjugated, as ELISA antigen for M9; also called stalk region peptide
# T2 peptide: GKHLCPSPLFPGPSKPK
# B1: VHH clone 2A1 (VHH)
# VHH: EVQLVESGGGLVQAGESLRLSCAASGSIASINAMGWYRQAPGSQRELVAAISGGGDTYYADSVKGRFTISRDNAKTTVYLQMNSLRPEDTAVYYCVVDLYGSDYWDWGQGTQVTVSS
# notes: also called VHH #2A1
# B2: antibody M9 (antibody, V domains shown)
# VH: DVKLVESGGGLVKLGGSLKLSCVASGFTFSSYYMSWVRQTPEKRLEWVATISDGGDNTYYAGTVTGRFTISRDFAKNTLYLQMNSLTSEDTAVYYCARIHWPYYFDSWGQGTTLTVSS
# VL: QFVLSQSPAILSASPGEMLTMTCRASSSVSYMNWYQQKPGSSPKPWIYATSDLASGVPARFSGSGSGTSYSLTISRVEAEDAATYYCQQWSSHPPTFGGGTKLEIR
# notes: Full-size mouse antibody raised in CD1 mice against the dimeric stalk peptide; detected with anti mouse IgG; also called clone M9; anti-cleavage antibody M9
# B3: VHH clone 4A4 (VHH)
# VHH: EVQLVESGGGLVQAGGSLRLSCAASGSLFSINAMAWYRQAPGKQRELVAAITSSGSTNYANSVKGRFTVSRDNAKNTMYLQMNSLKPEDTAVYYCVVDEYGSDYWIWGQGTQVTVSS
# B4: VHH clone 4A1 (VHH)
# VHH: QVQLVESGGGLVQAGGSLRLSCAASGSIFSINAMGWYRQAPGKQRERVAAITSGGSTNYADSVKGRFTISRDNAKNTVYLQMNNLEPRDAGVYYCVVDLYGEDYWIWGQGTQVTVSS
# Columns and labels:
# [1] = target: T3, membranal human CD28 (full-length human CD28 on cells) (human, UniProt P10747 19-220); test: FACS, FITC conjugated VHH on HEK cells overexpressing human CD28 (FIG. 14)
# T3 construct: in the functional assays also the CD28 of human CD3 or CD4 T cells and PBMC; also called mCD28; membranal CD28
# [2] = target: T1, Biotin conjugated L145K CD28 stalk …; test: direct ELISA on L145K dimeric stalk peptide on neutravidin plates, anti His tag-HRP (FIG. 23)
# [3] = target: T2, BSA conjugated CD28 stalk region …; test: ELISA, antigen immobilized, serial dilution of M9, anti mouse IgG-HRP (FIG. 12A)
Binder,binding result [1],binding result [2],binding result [3]
B1,binds,no binding (tested: 0.2-5 µg/mL),–
B2,–,–,binds
B3,–,no binding (tested: 0.2-5 µg/mL),–
B4,–,no binding (tested: 0.2-5 µg/mL),–
